*1 amine or outer side, *2 acyl side, *3 side chain or, on linkers, in order; H or OH if unused. Where no end group is shown, it is not given here. Side-chain parts run from the residue outwards. [ ]: non-standard residue; d: D form. The star is where a group is joined. γGlu = O=C(O)[C@H](CCC(=O)[*:2])N[*:1]; Palmitoyl = CCCCCCCCCCCCCCCC(=O)*; Nle = CCCC[C@H](N)C(=O)O; Aib = CC(C)(N)C(=O)O
Columns and labels:
human glucagon receptor = human glucagon receptor (human, UniProt P47871 26-477); test: cell-based or functional assay
Sequence of human glucagon receptor (P47871 26-477): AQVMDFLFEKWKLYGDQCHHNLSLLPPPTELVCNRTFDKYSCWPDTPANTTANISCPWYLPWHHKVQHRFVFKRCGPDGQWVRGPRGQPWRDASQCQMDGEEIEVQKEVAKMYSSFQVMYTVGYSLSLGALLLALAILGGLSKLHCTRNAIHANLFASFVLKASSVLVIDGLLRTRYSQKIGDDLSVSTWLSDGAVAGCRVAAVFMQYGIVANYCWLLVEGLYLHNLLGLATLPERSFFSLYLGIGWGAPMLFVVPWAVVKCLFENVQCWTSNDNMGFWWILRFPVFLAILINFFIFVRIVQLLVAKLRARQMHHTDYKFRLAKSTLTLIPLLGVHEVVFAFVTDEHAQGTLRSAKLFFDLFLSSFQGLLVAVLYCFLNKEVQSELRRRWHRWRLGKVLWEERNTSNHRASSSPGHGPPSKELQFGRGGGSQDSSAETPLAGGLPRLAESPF

[1] = biological target: human glucagon-like peptide 1 receptor (human, UniProt P43220 24-463); test: cell-based or functional assay

H[Aib]VGTFTSDK([γGlu-γGlu-Palmitoyl])SKYLD[Aib]RAAQDFVQWL[Nle]DT-NH2 [Co-agonist Peptide 4] was tested, and the “GCGR EC50 (nM) human; cAMP production (HitHunter cAMP XS) in cells expressing human GCGR, 20% human serum” value (human glucagon receptor) was 0.89 nM and the “GLPR1 EC50 (nM) human; cAMP production (HitHunter cAMP XS) in cells expressing human GLP-1R, 20% human serum” value [1] was 0.1 nM.

From patent US20170360893A1 (Merck Sharp & Dohme, published 2017)
